From patent publication US20230117883A1

Molecular target: human transferrin receptor 1 (human) (UniProt P02786)
Assay: Carterra LSA biosensor, 25C; IgG captured on anti-IgG lawn, hTfR1 injected; 1:1 Langmuir fit

Sequence of UniProt P02786 (P02786 89-760 limits assumed): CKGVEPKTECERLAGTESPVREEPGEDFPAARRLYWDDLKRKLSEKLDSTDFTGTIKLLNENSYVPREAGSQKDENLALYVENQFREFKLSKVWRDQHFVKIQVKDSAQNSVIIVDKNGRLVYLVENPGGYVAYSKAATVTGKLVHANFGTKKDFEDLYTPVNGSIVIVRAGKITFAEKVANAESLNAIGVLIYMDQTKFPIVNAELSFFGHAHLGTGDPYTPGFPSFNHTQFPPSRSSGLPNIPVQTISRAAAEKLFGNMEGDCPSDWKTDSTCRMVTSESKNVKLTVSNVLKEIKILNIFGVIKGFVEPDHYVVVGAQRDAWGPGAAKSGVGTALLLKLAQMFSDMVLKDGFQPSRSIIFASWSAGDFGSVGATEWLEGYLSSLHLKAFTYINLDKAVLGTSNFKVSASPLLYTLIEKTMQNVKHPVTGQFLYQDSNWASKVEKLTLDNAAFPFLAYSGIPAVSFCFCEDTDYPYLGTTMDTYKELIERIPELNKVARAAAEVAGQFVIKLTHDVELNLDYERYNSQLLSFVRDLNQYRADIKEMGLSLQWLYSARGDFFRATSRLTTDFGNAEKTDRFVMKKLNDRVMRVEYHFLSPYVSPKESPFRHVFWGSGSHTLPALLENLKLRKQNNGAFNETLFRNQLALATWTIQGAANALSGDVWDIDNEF

Kd: 0.536 nM | kon: 774000 M⁻¹ s⁻¹
Substance: OKT9 mIgG (known anti-TfR1 antibody, control)
